This is an account of results in patent publication US12533393B2, “Vibrio cholerae protein for use against cancer” (priority 2019, dated 2026).

The test system of assay [1] is human tumor cell lines of diverse origin (HCT8, DLD1, PC3, HTB9, Suit2, MCF7). The assay can be described thus: Cell death assays (PrestoBlue, MTS) in tumor cell lines. As to conditions: 48 hours. In kind it is cell-based. The procedure: (§1) For cell death experiments, cells were grown on 96-well plate (1×10^4/well, Tecan Group Ltd) overnight and treated with MakA at different concentration for 48 hours at +37° C., 5% CO2. Cell death was quantified by two different biochemical methods: (1) reduction in PrestoBlue staining; and (2) reduction in MTS absorbance. Cell death is expressed as percentage (%) of untreated control cells for PrestoBlue assay or reduction in absorbance for MTS assay.
(§2) However, overexpression of at least three components (makCBA) or whole operon (makDCBA) was required for induction of lethality to C. elegans (FIG. 1A). The effect of purified MakA protein was investigated on in vitro cultured human tumor cell lines of diverse origin (HCT8 and DLD1=colon cancer cell, PC3=Prostate cancer cells, HTB9=Bladder cancer cell, PC3=Prostate cancer cell, Suit2=Pancreatic cancer cell, MCF7=Breast cancer cells).

For assay [2], the system named is human colon carcinoma cells, HCT8; oral fibroblasts, PDL1. As to the kind of experiment: Live cell microscopy of cell morphology. It counts as cell-based. As to conditions: HCT8 versus PDL1. The method, then: Cells were grown in 96 well plate (1×10^4/well, Tecan Group Ltd) overnight and treated with MakA at different concentration for 48 hours at +37° C., 5% CO2. Fluorescence and bright field images were captured with fluorescence microscope (Nikon, Eclipse Ti). Images were processed using the NIS-Elements (Nikon) and ImageJ software. For live cell confocal microscopy, cells were grown on a coverslip and treated with Alexa-568 labelled MakA for 6 or 24 hours at +37° C., 5% CO2.
as §2

Assay [3] deals with PIP5K1α, PLCβ, caspase-3 in HCT8 cells. The assay can be described thus: Immunoblot of phospholipid signaling proteins. It counts as cell-based, human. As to conditions: HCT8, MakA 500 nM. The method, then:
The effects of MakA on PIP5K1α, PLCβ, actin and caspase-3 were investigated. For immunoblot analysis, HCT8 cells treated with control or MakA toxin were collected and lysed with lysis buffer containing (50 mM Tris, 100 mM NaCl, 1 mM EDTA, 1 mM DTT, 1% Triton X 100, 2% SDS with 1× protease inhibitor cocktail and 1× phosphatase inhibitor). Protein samples were resolved on SDS-PAGE and processed for immunoblotting according to standard procedures. Antisera used were anti-PIP5K1a polyclonal antiserum (1:2000), anti-PLCβ polyclonal antiserum (1:2000), anti-actin polyclonal antiserum (1:5000), and anti-caspase 3 antiserum (1:1000) (all from Cell Signaling Technology, Inc).

Assay [4] relates to non-transformed colon cells (CCD-18Co and CCD 841 CoN), prostate (PNT1A) and oral fibroblasts (PDL1). As to the kind of experiment: Cell death assays in non-transformed cells. It counts as cell-based, human. As to conditions: at the concentration that effectively killed carcinoma cells. The method, then: as §1, §2

B1: MakA (protein, listed as Vibrio cholerae)
chain: MSQQVTQLNPTQQTTQSAFLATTVITAQCHAILNTQFTPPTVKPDWFDDLSKKLDSAKLVAKQWIDDLGPQVSASIPSSVINFDATFQASIDAIHELYKADPTASGKDNTTVQQASQIMTALSSQVSGIEATVKGMNKELSDWGVKMQAAHDDLVNGATNIQKTIIDLQTDIESMNNAIDNNRAAIEKLNKDLVYAQVAVGVGIFMLVAGVALTVATAGTAAAVSGGIAAVGAASIIAGGVTWGVLQNQIDDDYDSIAQEQKQKAEDQQQIIALQGLSNASSAVVSAIETSTSVLSDFETTWTVFGNELDDVVTKLNNGASMQSIIMEKVMSDAAKNEWDDAVELAKQLASAKIAIETKELAPAVKQAA
For B1, the “cell death in tumor cells” value in assay [1] is reported as “induces cell death in diverse range of tumor cells in a dose-dependent manner”. The plasma membrane remodeling result in assay [2] is reported as “induced plasma membrane remodeling in human colon carcinoma cells, HCT8 but not in oral fibroblasts, PDL1”. Besides, in assay [3], the “cleaved caspase-3” value is given as “expression of cleaved caspase-3 was also observed”, the “level of PIP5Kα” value is on record as “efficiently reduce the level of PIP5Kα” and the “level of PLC-β” value is “reduced level of PLC-β”. The “sensitivity of non-transformed cells to MakA” value in assay [4] was “largely unaffected or intermediately sensitive”.
